Data on 20 sequences can be found in the DeepSol protein solubility set.

The data set in a line: soluble on expression in E. coli; label from the status in PepcDB or PDB records.
Turning to “MHSALWVSKTGMAAQDTKMTAISNNLANVNTVGFKRDRVVFEDLFYSIQRQPGAQVDQVNELPSGVQLGSGVRVVGTQKVFTQGNTQNTTQDLDLAVMGQGFFQIENSDGQIMYTRNGQFHINSEGLMVNSQGLPLEPQIQI”, the “soluble on expression in E. coli” value is “not soluble”.

Turning to “MGSDKIHHHHHHMPKYLVFMDIDGTLLTDHQYVSERTRATIERFQKQDVLFYIATGRMYELAKIVRDKVNADVRLVTSNGAVFDGAQGRELTKLGGAAVELAYLIARRDNLPMMLFTPDMAYYTEQIPRFVARNAANFDADEVSIGYEEVKSFTQLATIEDQITNGVILSREDMSRLDSAREKLTNSKLLRLSSSNPNNIEMIPLNTDKGTAVKQIQREQHVDAAHTFVFGDGLNDVGMMAEADLSVAMGNALPQVKKVANYVTDMNYNDGLALFLEKYFAAHPLSTTK”, the “soluble on expression in E. coli” value is recorded as “not soluble”.

As to “MRIMGLDVGSKTVGVAISDPLGFTAQGLEIIKIDEEKAEFGFTRLEELVKQYQVEQFVIGLPKNMNNTNGPRVDASITYGNHIEHLFGLPVHYQDERLTTVEAERMLIEQADISRGKRKKVIDKLAAQLILQNYLNRNFLEHHHHH”, the “soluble on expression in E. coli” value is on record as “soluble”.

As to “MSEELEYLKVLLYASQVEAQKLRKQKEEKDALLKTFQVKLEVEALGNLPAQRNLSEDISKREIQSLKKQVTVLKEEIGLEGSKLAIANAVQEQLKTDLADEKEKCRFTREVTKLYQMNIQLDQPSRDQVADYLQFEIRTVKEVLRQKEEELEKLMAENKYNYFENCAEKCRIQEETSAARREADLLRDEMKTLVKNMNAKSEELLGQLRDSTEKCEEMEIDCNIQLLELQKRHELLNYYASLG”, the “soluble on expression in E. coli” value is on record as “not soluble”.

As for “MCILFIALNAHPQYPLIICANRDEFHHRPTAPAQFWPPERNMLAGKDLQAGGTWFGVNTQGQLAGVTNLRVAQKNQEPMRSRGELVIQALNSGSLICPNWLVEHAQDYQPFNLVFGQGTNLYCFNSIRRETVKLTQGFHAISNGAMDDVWPKMAKGQRSLEALIQQSAQLEVESLIKLMQDDSQPQDNELPDTGVGLEWKRRLAAIYIRHPDYGTRSTSILLQNAQGEIQFTEVRYDGKGRRLGQQDFHFTLPPQLPPEPDCLVVFLEHHHHHH”, the “soluble on expression in E. coli” value is reported as “not soluble”.

Turning to “MIRLQKFKQLTVWVMLGLLTSWIVSCSTDNVGTISKPVTSEVTKIEFWTMQLQPQFTNYFQSLITSFESQNPSIKVKWVDVPWSAMENKILTAVSAKTPPDVVNLNPDFASQLAGRNAWLDLDEKVPSEVSSSYLPNIWQASTLNGKTFGIPWYLTTRLTIYNTDLLKQAGITKPPATYTELAQEAQQIKDKTGKYAFFATFVPQDSGEVLESFVQMGVTLVNAEGKAAFNSPQGKAAFQYWVYLYKKGLLPKESLTQGHRHAIDLYQSGETAFLASGPEFLETISNNAPKISQASAIAPQITGDTGKKNVAVMNIVIPRASKQPDAAVKFALFVTNDENQLAFAKAANVLPSTVTALADSYFKEVPATATIAEKGRIISAQQMQTAEVLTPKMKDFKFLQKAIYENLQAAMLGQKTVDKALEDAAQQWNNR”, the “soluble on expression in E. coli” value is reported as “not soluble”.

As to “MGSDKIHHHHHHMDSVDLEVLRSSVRWQQEGHRVLLVTVVRTWGSSPRPEGAMLAVRDDGLVVGSVSGGCIEDDLIDRVRRLGITADHPESVKYGISAEEAHRFGLPCGGTIELVTEPLKPASGIAELLDAVENGRLATRTLDMATGTATLGPAEATDGLVFDGNSLLTIHGPRYRMLVIGAGQLSKYLCQIAVGLGFQVTVCDPREEYTETWDIPGVTMVRTMPDDTVTDMKLDERCAVIALTHDPKLDDLALMEALRTRAFYVGALGSRRNNQARRERLKEFDLNDVQLARLHGPVGIFIGSRTPPEIAISILAEVVAAKNHVSLPDILQVEGAKAARELAAGTGSSCDT”, the “soluble on expression in E. coli” value is listed as “not soluble”.

Take “MGSDKIHHHHHHMNDPESIFQRLDRLLARIEDTLPVRPQHADPAEYIALRWRKHGDTGYLQAINHPHTITLNELLNIEEQKQTLDRNTLQFVSGLPANNVLLTGARGTGKSSLIKALLNRYADRGLRMIEVDKLGLTDLPDIIEFIGQRPERFILYCDDLSFEADEPGYKALKVVLDGSISTASDNVLIYATSNRRHLIPEFMHENLATRHVDGEIHPGEATEEKISLSERFGLWLSFYPFDQEQYLEIVRHWLSQHGISRLSGPARQEALRWALARGSRNGRVARQFARDWAGQQKLAKTEPVRVDKE”: the “soluble on expression in E. coli” value is reported as “not soluble”.

For “RDFSPVPWSQYFESMEDVEVENETGKDTFRVYKSGSEGPVLLLLHGGGHSALSWAVFTAAIISRVQCRIVALDLRSHGETKVKNPEDLSAETMAKDVGNVVEAMYGDLPPPIMLIGHSMGGAIAVHTASSNLVPSLLGLCMIDVVEGTAMDALNSMQNFLRGRPKTFKSLENAIEWSVKSGQIRNLESARVSMVGQVKQCEGITSPEGSKKDHPYTWRIELAKTEKYWDGWFRGLSNLFLSCPIPKLLLLAGVDRLDKDLTIGQMQGKFQMQVLPQCGHAVHEDAPDKVAEAVATFLIRHRFAEPIGGFQCVFPGC”, the “soluble on expression in E. coli” value is “soluble”.

“GSHMLHWGPKYWRSLHLYAIFFSDAPSWKEKYEAIQWILNFIESLPCTRCQHHAFSYLTKNPLTLNNSEDFQYWTFAFHNNVNNRLNKKIISWSEYKNIYEQSILK”: the “soluble on expression in E. coli” value is “soluble”.

Consider “MNEYAPLRLHVPEPTGRPGCQTDFSYLRLNDAGQARKPPVDVDAADTADLSYSLVRVLDEQGDAQGPWAEDIDPQILRQGMRAMLKTRIFDSRMVVAQRQKKMSFYMQSLGEEAIGSGQALALNRTDMCFPTYRQQSILMARDVSLVEMICQLLSNERDPLKGRQLPIMYSVREAGFFTISGNLATQFVQAVGWAMASAIKGDTKIASAWIGDGATAESDFHTALTFAHVYRAPVILNVVNNQWAISTFQAIAGGESTTFAGRGVGCGIASLRVDGNDFVAVYAASRWAAERARRGLGPSLIEWVTYRAGPHSTSDDPSKYRPADDWSHFPLGDPIARLKQHLIKIGHWSEEEHQATTAEFEAAVIAAQKEAEQYGTLANGHIPSAASMFEDVYKEMPDHLRRQRQELGV”, for which the “soluble on expression in E. coli” value is recorded as “soluble”.

Regarding “MIPRKEMAAVSTEMTMAEMLEVMLKEKYTRWPVTDGDKDSVLGLVNTKHLFSDLLFMTEEERMKMTIHPYVRPVIEVIETIPVHDLLIKMQRERIHMAILSDEYGGTSGLVTTEDILEEIVGEIR”, the “soluble on expression in E. coli” value is given as “not soluble”.

Consider “MRLNHKQGTAGEDAALAFLQSQGCTLLARNWHCAYGEIDLIVKNGGMILFVEVKYRKNQRFGGAAYSISPSKLLKLQRSVEYYLQQNRLTNVPCRLDAVLIEGNRPPEWIKNITG”, for which the “soluble on expression in E. coli” value is recorded as “soluble”.

Take “MSLDQIKIAYIGGGSQGWARSLMSDLSIDERMSGTVALYDLDFEAAQKNEVIGNHSGNGRWRYEAVSTLKKALSAADIVIISILPGSLDDMEVDVHLPERCGIYQSVGDTVGPGGIIRGLRAVPIFAEIARAIRDYAPESWVINYTNPMSVCTRVLYKVFPGIKAIGCCHEVFGTQKLLAEMVTERLGIEVPRREDIRVNVLGINHFTWITKASYRHIDLLPIFREFSAHYGESGYELEGECWRDSVFCSAHRVAFDLFETYGAIPAAGDRHLAEFLPGPYLKQPEVWKFHLTPISFRKQDRAEKRQETERLIVQQRGVAEKASGEEGVNIIAALLGLGELVTNVNMPNQGQVLNLPIQAIVETNAFITRNRVQPILSGALPKGVEMLAARHISNQEAVADAGLTKDTGLAFQAFLNDPLVQIDRSDAEQLFNDMLQCIMQSEGHHHHHH”: the “soluble on expression in E. coli” value is “soluble”.

With “MGSDKIHHHHHHCASSLTQGKYVDGTHLVQAKGKKSQIVLEVKVDQGKIVDIKTKSHKETESLYLNAERLLPRIVANNGHEGIDAVSGATYSSNGILKAVNDLPRASSVQPEYVAVGAKEEQGDDFKLKWSIQPKLGLLVGDYYYEEARFRQGHMGSMTIVTNSQDRNDVILAEFNESGRPNYYTRLYQDVPKRMSEYNFSMGKKKGTAWVQSALTMEKLMVEQDKLTFEPNPNHDPKLANKLKEPNRLKYLGIDVVAGASNSIQQSMIPLTAKIHHKIHGEGTRLKFYQLAEKLVNEKGRWTGITAMLRLVVDPASKQIIKAHFDEIFADEKAQIQDASLKKFYRQSKYDSINYSEPARIGFNVMIDALNAHLQAGGSLFDINDLPATGDSGNYAATGFTKRSSSWDIYLNQAEQLYKKMRLDGVIAEHKHPAAK”, the “soluble on expression in E. coli” value is “not soluble”.

As to “MSQYERFDSVLLSMAQQLSGGVPEMLDVLFEFLSRKTDFYSGAGVDQARTLLLEKFDKHGGKAMKEAEEAKKRKEEQERKLAERRAAQKAKEEEEFRNAKVVEVTDEEAAAFEKEQAKNSVENLEKFVDNEGETSKDAEVEDEDSKLMKPNSGNGADLAKYQWTQTLQELEVKIPIAAGFAIKSRDVVVKIEKTSVSVGLKNQAPIVDGKLPHAIKVENCNWVIENGKAIVLTLEKINDMEWWNRFLDSDPPINTKEVKPENSKLSDLDGETRAMVEKMMYDQRQKEMGLPTSDEKKKHDMLQQFMKQHPEMDFSNAKIG”, the “soluble on expression in E. coli” value was “soluble”.

“MGSDKIHHHHHHEISDGVVRIGLLTDMSGAFSQFSGHGSVVAAQMAIDDCLAAECKGMKIELLSADHQNKTDIALAKAREWADVNKVDAYADMVNSAVALAMQSLAVQKKKAALFAGGPLRISNEDCQPEYAVQWMWDTYSQTAAAIKGLAKPKQGWYFITVDYAYGNAAVAEARKQLEAIGAHTVGESKHPLNSNDMSSQIIAAQQSKADVVAFANSGADSANAIKTASEFKLGAKKLQAAFFPTIYEIKGIGLAQAKGLRFPESFYWDIDDGTRRFSKRFMDIYKKGPPSLTHAGVYSSVYHYLKAVAATKSDDAQTVIRKMHELPIRDDVVRNPKLRPDGRMVHDYYYFRVKSPQESKGPWDLYALEKTLPGDEVFLPVAESQCRVFKGQAK”: the “soluble on expression in E. coli” value is “not soluble”.

With “MIEYAALKFNVVSDPMSETAKKVIVGMSGGVDSSVSAWLLQQQGYQVEGLFMKNWEEDDGEEYCTAAADLADAQAVCDKLGIELHTVNFAAEYWDNVFELFLAEYKAGRTPNPDILCNKEIKFKAFLEFAAEDLGADYIATGHYVRRADVDGKSRLLRGLDSNKDQSYFLYTLSHEQIAQSLFPVGELEKPQVRKIAEDLGLVTAKKKDSTGICFIGERKFREFLGRYLPAQPGKIITVDGDEIGEHQGLMYHTLGQRKGLGIGGTKEGTEEPWYVVDKDVENNILVVAQGHEHPRLMSVGLIAQQLHWVDREPFTGTMRCTVKTRYRQTDIPCTVKALDDDRIKVIFDEPVAAVTPGQSAVFYNGEVCLGGGIIEQRLPLPV”, the “soluble on expression in E. coli” value is recorded as “not soluble”.

Consider “MGSDKIHHHHHHMFLGEDYLLTNRAAVRLFNEVKDLPIVDPHNHLDAKDIVENKPWNDIWEVEGATDHYVWELMRRCGVSEEYITGSRSNKEKWLALAKVFPRFVGNPTYEWIHLDLWRRFNIKKVISEETAEEIWEETKKKLPEMTPQKLLRDMKVEILCTTDDPVSTLEHHRKAKEAVEGVTILPTWRPDRAMNVDKEGWREYVEKMGERYGEDTSTLDGFLNALWKSHEHFKEHGCVASDHALLEPSVYYVDENRARAVHEKAFSGEKLTQDEINDYKAFMMVQFGKMNQETNWVTQLHIGALRDYRDSLFKTLGPDSGGDISTNFLRIAEGLRYFLNEFDGKLKIVLYVLDPTHLPTISTIARAFPNVYVGAPWWFNDSPFGMEMHLKYLASVDLLYNLAGMVTDSRKLLSFGSRTEMFRRVLSNVVGEMVEKGQIPIKEARELVKHVSYDGPKALFFG”, for which the “soluble on expression in E. coli” value is given as “soluble”.

Turning to “MRGSHHHHHHGSACCASRDDWRCARSMHEFSAKDIDGHMVNLDKYRGFVCIVTNVASQCGKTEVNYTQLVDLHARYAECGLRILAFPCNQFGKQEPGSNEEIKEFAAGYNVKFDMFSKICVNGDDAHPLWKWMKIQPKGKGILGNAIKWNFTKFLIDKNGCVVKRYGPMEEPLVIEKDLPHYF”, the “soluble on expression in E. coli” value was “soluble”.
